# Laboratory results reported in patent US20050124794A1, “Cell surface tropomyosin as a target of angiogenesis inhibition” (priority 2002, published 2005).
# Values joined by “and” are separate entries in the source; they are usually repeats but may differ in a detail not shown here. Equal values may be shown once. “Also recorded” adds a separate entry of the source.
# B1: HKa: Two-chain high molecular weight kininogen, purchased from Enzyme Research Laboratories (protein)
# chain 1: QESQSEEIDCNDKDLFKAVDAALKKYNSQNQSNNQFVLYRITEATKTVGSDTFYSFKYEIKEGDCPVQSGKTWQDCEYKDAAKAATGECTATVGKRSSTKFSVATQTCQITPAEGPVVTAQYDCLGCVHPISTQSPDLEPILRHGIQYFNNNTQHSSLFMLNEVKRAQRQVVAGLNFRITYSIVQTNCSKENFLFLTPDCKSLWNGDTGECTDNAYIDIQLRIASFSQNCDIYPGKDFVQPPTKICVGCPRDIPTNSPELEETLTHTITKLNAENNATFYFKIDNVKKARVQVVAGKKYFIDFVARETTCSKESNEELTESCETKKLGQSLDCNAEVYVVPWEKKIYPTVNCQPLGMISLMK
# chain 2: SSRIGEIKEETTVSPPHTSMAPAQDEERDSGKEQGHTRRHDWGHEKQRKHNLGHGHKHERDQGHGHQRGHGLGHGHEQQHGLGHGHKFKLDDDLEHQGGHVLDHGHKHKHGHGHGKHKNKGKKNGKHNGWKTEHLASSSEDSTTPSAQTQEKTEGPTPIPSLAKPGVTVTFSDFQDSDLIATMMPPISPAPIQSDDDWIPDIQTDPNGLSFNPISDFPDTTSPKCPGRPWKSVSEINPTTQMKESYYFDLTDGLS
# Assays:
# proliferating ECs [1] = experiment: Binding of biotin-HKa to ECs; parameters: species or system human; conditions: Zn2+-dependent (10 μM Zn2+), nonlinear regression, read-out: Kd of specific binding of HKa to proliferating ECs
# Method: Binding of HKa to ECs and purified Tpm. Binding of HKa to ECs was measured as described by Hasan, A A et al. (1995) J. Biol. Chem. 270:19256-19261. Briefly, 3×10^4 HLVEC/ml were cultured in 96-well microplates, then washed and incubated with increasing concentrations of biotin-HKa for two hours, at 4° C. After brief washing, cells were incubated sequentially with a 1:750 dilution of streptavidin peroxidase and the peroxidase substrate, turbo-TMB (Pierce), prior to measurement of A490. Absolute amounts of bound HKa were determined by comparison of A490 values with a standard curve prepared using known amounts of biotin-HKa Binding was measured in the presence (to determine total binding) and absence (to determine non-specific binding) of 10 μM Zn^2+, and specific binding defined as the difference between total and non-specific binding (van Iwaarden, F et al. (1988) J. Biol. Chem. 263:4698-4703). The dissociation constant (Kd) was determined by fitting the saturation isotherm by nonlinear regression using the Prism software program (GraphPad, San Diego, Calif.).
# In selected experiments, the ability of mAb TM-311 to inhibit the binding of HKa to cells was assessed by incubating biotin-HKa with ECs in the presence of increasing concentrations of antibody. […]
# chicken gizzard Tpm [2] = target: T1, chicken gizzard Tpm (Gallus gallus, UniProt P19352); experiment: Binding of HKa to purified Tpm immobilized in 96 well microplates; conditions: biotin-HKa, Zn2+-dependent (10 μM Zn2+), nonlinear regression; read-out: Kd of binding of HKa to purified Tpm
# T1 construct: purchased Sigma; host or cells: chicken gizzard (tissue-derived, as the name says)
# T1 sequence (P19352 1-284 isoform P19352-2): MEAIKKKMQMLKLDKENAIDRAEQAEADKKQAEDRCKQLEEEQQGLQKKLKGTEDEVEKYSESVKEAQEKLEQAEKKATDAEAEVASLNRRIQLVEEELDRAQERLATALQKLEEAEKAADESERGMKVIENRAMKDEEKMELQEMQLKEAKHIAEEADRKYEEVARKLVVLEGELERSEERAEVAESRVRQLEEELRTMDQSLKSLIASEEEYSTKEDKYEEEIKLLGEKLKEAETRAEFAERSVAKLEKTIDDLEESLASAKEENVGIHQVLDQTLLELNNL
# T1 sequence (P04268 1-284 isoform P04268-2 F73S/I172L/T199L/N203E/L204A partner): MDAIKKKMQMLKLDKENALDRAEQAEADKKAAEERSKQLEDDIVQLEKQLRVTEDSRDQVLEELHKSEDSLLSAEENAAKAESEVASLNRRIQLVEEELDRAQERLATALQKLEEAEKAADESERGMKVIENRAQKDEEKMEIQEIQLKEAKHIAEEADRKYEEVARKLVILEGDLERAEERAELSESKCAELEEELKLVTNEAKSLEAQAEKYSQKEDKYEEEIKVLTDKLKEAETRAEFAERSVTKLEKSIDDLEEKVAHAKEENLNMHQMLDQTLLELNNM
# Method: To measure the binding of HKa to purified Tpm, 96 well microplates were coated with 20 μg/ml of chicken gizzard Tpm (Sigma), or bovine serum albumin (BSA), as a control. Wells were then blocked by incubation with phosphate buffered saline containing 5% nonfat milk, and incubated with increasing concentrations of HKa (0.01-20 nM) for 2 hours. Specifically-bound HKa was quantitated as described for cell binding assays (van Iwaarden et al., supra, and by assessing the ability of a 100-fold molar excess of unlabeled HKa to compete with biotin-HKa for binding.
# In selected experiments, the ability of mAb TM-311 and recombinant HKa D5 to inhibit the binding of biotin-HKa to Tpm was assessed. These studies allowed determination of the Kd for binding of HKa D5 to Tpm using the equation: Kd (D5)=IC50/(1+[HKa]/Kd (HKa)) where IC50 is the concentration of HKa D5 that inhibited HKa binding by 50%, and Kd(HKa) is the Kd for binding of HKa to Tpm.
# chicken gizzard Tpm [3] = target: T1, chicken gizzard Tpm; experiment: Binding to immobilized Tpm in a 96 well plate (biotin-HKa competition or direct binding); conditions: plate coated with 200 ng chicken gizzard Tpm, 10 μM ZnCl2
# Method: Plates are coated at room temperature with chicken gizzard Tpm (Sigma) in Tris buffer-saline (TBS) (200 ng/well). After incubation for 2 hours, wells are washed with TBS, then 1% BSA/TBS/Tween-20 is added to each well and incubate at 37° C. for two hours. HKa (Enzyme Laboratories) that had been previously biotinylated with EZ-Link (Pierce) according to the manufacturers instructions, is added to the plate at a concentration of 10 nM together with ZnCl2 (10 μM) and the appropriate concentration of the protein, domain or peptide competitor. The plates are incubated at room temperature and then washed with TBS/Tween-20. Avidin-HRP is added, incubated for 20 minutes at room temperature, washed with TBS/Tween-20 and the chromogenic substrate is added. The reaction is stopped with sulfuric acid and the plate read at 490 nm.
# The IC50 for the displacement of biotinylated-HKa for the peptides shown in Table 5 was determined as follows: 10 nM biotin-HKa is added to a 96 well plate previously coated with 200 ng of chicken gizzard Tpm in the presence of 10 μM ZnCl2. Increasing amounts of the peptides are added to the wells. The remaining biotin-HKa bound to Tpm was detected using avidin-HRP and a chromogenic substrate. A Kd was determined by non-linear regression analysis of the empirical data. The effect on the Matrigel Plug assay was determined as follows: Matrigel (0.5 mL) containing 400 ng/ml of bFGF, 50 μg/ml heparin with or without the peptide (300 μM) or saline buffer are injected in the flanks of a mouse. After five days, the plugs are removed and the plugs scanned.
# The N-terminus of the pentapeptide HHPHG has been derivatized (capped) in an attempt to increase the pentapeptides' affinity to Tpm by increasing productive molecular contacts (or interactions). […] The IC50 for the displacement of biotinylated-HKa for the capped peptides shown in the table was determined as follows: 10 nM biotin-HKa was added to a 96 well plate previously coated with 200 ng of chicken gizzard Tpm in the presence of 10 μM ZnCl2. Increasing amounts of the peptides were added to the wells. The remaining biotin-HKa bound to Tpm was detected using avidin-HRP and a chromogenic substrate. A Kd was determined by non-linear regression analysis of the empirical data
# HUVEC = experiment: EC proliferation assay (growth factor-induced); type: cell-based, human; conditions: bFGF 10 ng/ml; 20 nM HKa, 60 nM HKa domain 5
# Method: EC proliferation assays. The effect of HKa on ECs in the absence or presence of mAb TM-311 was initially assessed using a proliferation assay, as described in Zhang et al., supra. Relative numbers of cells remaining in each well of a 96 well microplate after incubation for 48 hours in the absence or presence of HKa were determined using the Aqueous® cell proliferation assay (Promega, Madison, Wis.). Results are presented as the percent inhibition of bFGF-induced EC proliferation, which essentially reflects the extent of HKa-induced EC apoptosis. Though bFGF was used as the EC mitogen in most studies of the studies described herein, identical results were obtained using VEGF.
# proliferating ECs [4] = experiment: Assessment of EC apoptosis (DAPI, TUNEL, DNA cleavage); type: cell-based, human
# Method: Assessment of EC apoptosis. The effect of TM-311 on HKa- or HKa D5-induced EC apoptosis was determined using several methods. First, staining of control or HKa exposed ECs using 4′, 6′-diamidino-2-phenylindole dihydrochloride (DAPI) (Molecular Probes, Eugene Oreg.) was employed to highlight apoptosis-associated changes in nuclear morphology. Second, apoptosis was assessed by TUNEL staining, using the Apo-Direct kit (Pharmingen, San Diego, Calif.). Cells were counterstained with propidium iodide to define all nuclei, and the percentage of apoptotic CUNEL positive) nuclei determined by manual counting. Finally, to assess endothelial apoptosis by endonucleolytic cleavage of DNA, EC DNA was isolated and separated using 0.8% agarose gel electrophoresis. Gels were stained with ethidium bromide, and DNA visualized using UV light.
# [5] = tested on: bFGF-induced angiogenesis in the chick chorioallantoic membrane; experiment: Chick chorioallantoic membrane (CAM) assay; type: in vivo
# Method: This assay is performed essentially as described by Nguyen et al (Microvascular Res. 47:31-40 (1994)). A mesh containing either angiogenic factors (bFGF) or tumor cells plus inhibitors is placed onto the CAM of an 8-day old chick embryo and the CAM observed for 3-9 days after implantation of the sample. Angiogenesis is quantitated by determining the percentage of squares in the mesh which contain blood vessels.
# Chick chorioallantoic membrane assay. […] Three day-old fertilized White Leghorn chicken eggs were cracked in sterile Petri dishes. Embryos were cultured at 37° C., under 4% CO2, until day 7, at which time a 3.0 mm filter disc containing either 30 ng bFGF (positive control), 30 ng bFGF and 10 μg HKa or 30 ng bFGF, 10 μg HKa and 20 μg of mAb TM-311 was placed on the CAM. Each experimental condition was tested in at least 6 eggs. On day 10, embryos were photographed using a SPOT digital camera Angiogenesis was quantitated by counting the number of neovessels in direct contact with the filter disc.
molecule,measurement,setting,value
B1,Kd,proliferating ECs [1],~2.5 nM and ~2.6 nM
same,Kd,chicken gizzard Tpm [2],~2.6 nM and ~2.5 nM
same,Kd,chicken gizzard Tpm [3],~1 nM
same,inhibition of bFGF-induced EC proliferation (in words),HUVEC,inhibition
same,induction of EC apoptosis (in words),proliferating ECs [4],induction of EC apoptosis
same,"inhibition of angiogenesis induced by bFGF-containing filter discs, vessel counts","[5]; 30 ng bFGF, 10 μg HKa",about 85%
same,inhibition of bFGF-induced angiogenesis in the CAM (in words),[5]; in vivo,inhibited basic FGF-induced angiogenesis; also recorded: antiangiogenic activity
